For orientation: Km means the substrate concentration at which the rate is half of its maximum.

Substrate in the data set: NCCc1ccccc1
The experiment in a line: Platelet monoamine oxidase (MAO) assay, deamination of 14C-PEA. Type of data set: biochemical, human. To be noted: other: platelets of control subjects; varying PEA; mean±SEM, n=6; 37.0 °C. Here is the method:
Platelets were prepared from whole blood (20 ml) which was obtained by venipuncture from healthy volunteers and alcoholic subjects. After standing at room temperature for approximately three to four hours in citrate-phosphate-dextrose solution, each blood sample was centrifuged at 180×G for two minutes. The platelet-rich plasma (PRP) was carefully removed and platelet count was determined from aliquots (20 ul) of the PRP with a Coulter S-plus Thrombocounter. The PRP was centrifuged at 16,000 g for ten minutes. The pellet was resuspended in 50 ml of cold 50 mM Tris-HCl, pH 7.5, containing […] NaCl and 20 mM ethylene diamine tetraacetic acid (EDTA). The centrifugation was repeated twice, and the final pellet was resuspended in 1 ml of cold 5 mM Tris-HCl, pH 7.5, containing 5 mM EDTA. Suspensions were rapidly frozen at -70° C., and samples were stored at -70° C. for no longer than four weeks prior to assay.
To measure the deamination of ^14 C-PEA, assay mixtures (total volume, 0.3 ml) contained approximately 15 ug of platelet protein. Reactions were carried out in 0.1 M sodium phosphate, pH 7.4, at 37° C. […] Two additional ml of water and 20 ml of scintillation fluid were added to each vial, and radioactivity was determined in a liquid scintillation spectrometer. […]

B1: platelet monoamine oxidase (MAO) (Homo sapiens) (protein)
chain: MSNKCDVVVVGGGISGMAAAKLLHDSGLNVVVLEARDRVGGRTYTLRNQKVKYVDLGGSYVGPTQNRILRLAKELGLETYKVNEVERLIHHVKGKSYPFRGPFPPVWNPITYLDHNNFWRTMDDMGREIPSDAPWKAPLAEEWDNMTMKELLDKLCWTESAKQLATLFVNLCVTAETHEVSALWFLWYVKQCGGTTRIISTTNGGQERKFVGGSGQVSERIMDLLGDRVKLERPVIYIDQTRENVLVETLNHEMYEAKYVISAIPPTLGMKIHFNPPLPMMRNQMITRVPLGSVIKCIVYYKEPFWRKKDYCGTMIIDGEEAPVAYTLDDTKPEGNYAAIMGFILAHKARKLARLTKEERLKKLCELYAKVLGSLEALEPVHYEEKNWCEEQYSGGCYTTYFPPGILTQYGRVLRQPVDRIYFAGTETATHWSGYMEGAVEAGERAAREILHAMGKIPEDEIWQSEPESVDVPAQPITTTFLERHLPSVPGLLRLIGLTTIFSATALGFLAHKRGLLVRV
notes: contained approximately 15 ug of platelet protein; from tissue; host or cells: platelets (membranes) from whole blood of volunteers and alcoholic subjects
For B1, the Michaelis constant (Km) was 1.4 ± 0.2 µM and the Vmax turned out to be 508±37 pmole/mg protein/minute.

The values above are taken from patent US4770996A, “Identification of individuals predisposed toward alcohol abuse” (priority 1986, dated 1988).
